In paper PMC3657149, “Mig6 Is a Sensor of EGF Receptor Inactivation that Directly Activates c-Abl to Induce Apoptosis during Epithelial Homeostasis” (Developmental Cell, 2012):

Biological target: immunopurified Abl (UniProt P00519-2 1-1149)
Assay: cell-based or functional assay

Chain of immunopurified Abl (P00519 other isoform, or with tags, fused parts or gaps): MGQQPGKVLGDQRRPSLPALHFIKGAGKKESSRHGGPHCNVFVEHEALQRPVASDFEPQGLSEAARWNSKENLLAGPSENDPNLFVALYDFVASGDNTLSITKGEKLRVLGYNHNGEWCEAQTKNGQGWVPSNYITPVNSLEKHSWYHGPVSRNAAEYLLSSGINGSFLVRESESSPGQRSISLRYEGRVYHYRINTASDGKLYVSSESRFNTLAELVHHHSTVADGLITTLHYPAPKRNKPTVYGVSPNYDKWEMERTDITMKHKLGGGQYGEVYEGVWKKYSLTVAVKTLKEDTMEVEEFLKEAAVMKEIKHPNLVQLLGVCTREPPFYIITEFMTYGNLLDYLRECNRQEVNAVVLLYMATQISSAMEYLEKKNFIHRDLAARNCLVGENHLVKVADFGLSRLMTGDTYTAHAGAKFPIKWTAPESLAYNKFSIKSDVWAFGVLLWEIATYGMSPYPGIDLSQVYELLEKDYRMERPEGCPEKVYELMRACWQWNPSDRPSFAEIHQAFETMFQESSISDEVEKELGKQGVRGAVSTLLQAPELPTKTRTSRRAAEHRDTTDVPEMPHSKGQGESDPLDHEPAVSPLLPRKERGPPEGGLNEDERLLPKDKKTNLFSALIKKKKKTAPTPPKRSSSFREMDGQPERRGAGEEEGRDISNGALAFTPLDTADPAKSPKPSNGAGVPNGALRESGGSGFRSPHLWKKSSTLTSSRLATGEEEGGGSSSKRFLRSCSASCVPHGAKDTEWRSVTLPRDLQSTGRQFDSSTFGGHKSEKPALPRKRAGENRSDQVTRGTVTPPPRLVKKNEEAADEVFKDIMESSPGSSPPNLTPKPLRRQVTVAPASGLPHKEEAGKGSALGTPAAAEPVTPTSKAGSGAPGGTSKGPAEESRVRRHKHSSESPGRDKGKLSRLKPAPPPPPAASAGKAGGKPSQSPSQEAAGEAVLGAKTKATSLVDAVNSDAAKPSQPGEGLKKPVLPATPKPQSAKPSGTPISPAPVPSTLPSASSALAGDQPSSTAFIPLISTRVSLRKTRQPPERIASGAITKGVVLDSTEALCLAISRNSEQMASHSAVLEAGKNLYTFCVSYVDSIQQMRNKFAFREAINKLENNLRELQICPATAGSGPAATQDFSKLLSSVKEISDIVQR

B1: bacterially produced Mig6 (natural protein, UniProt Q9UJM3 1-462, looked up)
chain: MSIAGVAAQEIRVPLKTGFLHNGRAMGNMRKTYWSSRSEFKNNFLNIDPITMAYSLNSSAQERLIPLGHASKSAPMNGHCFAENGPSQKSSLPPLLIPPSENLGPHEEDQVVCGFKKLTVNGVCASTPPLTPIKNSPSLFPCAPLCERGSRPLPPLPISEALSLDDTDCEVEFLTSSDTDFLLEDSTLSDFKYDVPGRRSFRGCGQINYAYFDTPAVSAADLSYVSDQNGGVPDPNPPPPQTHRRLRRSHSGPAGSFNKPAIRISNCCIHRASPNSDEDKPEVPPRVPIPPRPVKPDYRRWSAEVTSSTYSDEDRPPKVPPREPLSPSNSRTPSPKSLPSYLNGVMPPTQSFAPDPKYVSSKALQRQNSEGSASKVPCILPIIENGKKVSSTHYYLLPERPPYLDKYEKFFREAEETNGGAQIQPLPADCGISSATEKPDSKTKMDLGGHVKRKHLSYVVSP
For B1, the “activation (phosphorylation) of immunopurified Abl in the presence of bacterially produced Mig6” value was 2.2 fold.
